# Experimental data as given in patent US20260120837A1, “METHODS OF DOSING THERAPEUTIC AGENTS” (Fusion Pharmaceuticals Inc., priority 2022, published 2026).
# Read-outs that look alike come from different tables or passages of the source.
# B1: Evolocumab: antibody; one-compartment model with mixed linear and nonlinear clearance pathways (antibody, chains of the INN, looked up, V domains shown)
# VH: EVQLVQSGAEVKKPGASVKVSCKASGYTLTSYGISWVRQAPGQGLEWMGWVSFYNGNTNYAQKLQGRGTMTTDPSTSTAYMELRSLRSDDTAVYYCARGYGMDVWGQGTTVTVSS
# VL: ESALTQPASVSGSPGQSITISCTGTSSDVGGYNSVSWYQQHPGKAPKLMIYEVSNRPSGVSNRFSGSKSGNTASLTISGLQAEDEADYYCNSYTSTSMVFGGGTKLTVL
# Key:
# [1] = PK (TMDD) model parameters and Ctrans, two-compartment TMDD model, QSS approximation; assay type: in vivo, humans; conditions: for Ctrans: Equation (13); for Ttot = Ksyn/Kdeg: total target concentration
# Protocol: For this kind of PK model, Ctrans is determined according to Equation (2), specified by Equation (13).
# where VM and KM are calculated from TMDD model parameters according to Equations (11) and (12).
# PK parameters listed in Table S were obtained based on the protocols disclosed in Stein & Peletier, 2018 and Rodriguez-Vera et al., 2015, with modification to be consistent with the current model description listed in Equations (7A)-(7D).
# [2] = cited from earlier work; for Kdeg: degradation of free target; for Cl / Q / Vc / Vp: in vivo; for Kint: internalization of drug-target complex; for Ksyn: target synthesis
# [3] = PK parameters and Ctrans, two-compartment model with mixed linear and nonlinear M-M clearance pathways (four antibodies); assay type: in vivo, human; conditions: calculated by Equation (2), sqrt(KM×VM/Cl)
# Protocol: For this kind of PK model, Ctrans is determined according to Equation (2): […]
# PK parameters listed in Table 3, i.e., Vc, Cl, Vp, Q, VM and KM, were obtained based on the protocols disclosed in Frey et al., 2010; Kloft et al., 2004; Ma et al., 2009; and Okamoto et al., 2021, with modification to be consistent with the current model description provided here.
# [4] = cited from earlier work; for KM / Q / VM / Vc / Vp: in vivo; for Cl: linear clearance
# [5] = PK parameters and Ctrans, two-compartment model with nonlinear M-M clearance only (cetuximab, alemtuzumab); assay type: in vivo, human; conditions: calculated by Equation (3)
# Protocol: For this kind of PK model, Ctrans is determined according to Equation (3): […]
# PK parameters listed in Table 1, i.e., Vc, Vp, Q, VM and KM, were obtained based on the protocols disclosed in Dirks et al., 2008 and Mould et al., 2007, with modification to be consistent with the current model description provided herein.
# [6] = cited from earlier work
# [7] = Minimal dose to keep plasma concentration Cp(t) above Ctrans for Tdur, two-compartment model solved with deSolve (tocilizumab); set-up: species or system humans
# Protocol: This example requires that Ttrans for the desired therapeutic dose be greater than the pre-determined duration time point post-administration, which is denoted herein as Tdur.
# PK model parameters for tocilizumab such as Vc, Cl, Vp, Q, KM and VM are provided in Example 3. Ctrans is determined to be 8.22 μg/mL or 8.22 mg/L; Tur is pre-determined as 28 days, which is equal to or less than Ttrans.
# [8] = PK parameters for rats and Ctrans, two-compartment model with nonlinear only clearance pathway (phenytoin); assay type: in vivo; conditions: rats
# Protocol: Its PK in rats is described by a two-compartment model with nonlinear only clearance described by M-M equation. For this kind of PK model, […] is determined according to Equation (3): PK parameters listed in Table 2, […] and KM, were obtained based on the protocols disclosed in Della Paschoa et al., 1998, with modification to be consistent with the current model description provided herein.
# [9] = rats; cited from earlier work
# [10] = PK model parameters, Ctrans and therapeutic dose to reach Ctrans at Ttrans, one-compartment model with mixed linear and nonlinear clearance (evolocumab); assay type: in vivo, humans
# Protocol: Ttrans to reach the transitional concentration Ctrans for any dose level Cmax is determined according to Equation(S). When Ttrans and Ctrans are known, Cmax and the therapeutic dose can be determined as follows.
# According to Equation (2), Ctrans is determined to be 115.18 nM or 17.28 mg/L assuming the molecular weight of 150 kDa or 150 kg/mol for a typical antibody. Ttrans is pre-determined to be 28 days. Ttrans and Ctrans can be used to determine Cmax based on Equation(S). Cmax can be obtained from Equation (5) via any root solver as provided in MATLAB™ and RStudio.
# PK parameters listed in Table 6 were obtained based on the protocols disclosed in Kuchimanchi et al., 2018, with modification to be consistent with the current model description listed in Equations (2) and (4).
# [11] = in vivo; cited from earlier work
molecule,measurement,setting,value
Nimotuzumab: antibody of Table 5; TMDD model under QSS condition (text b119 says efalizumab),Ctrans,[1],142.3 (μg/mL)
same,KM = KQSS,[1]; in vivo,6.96 (mg/L)
same,VM = KsynVc,[1]; in vivo,2.045 (mg/hour)
same,Ttot = Ksyn/Kdeg,[1],0.26 (μg/mL)
same,Kdeg,[2],5.5 (/hour)
same,Cl,[2],0.000703 (L/hour) ^
same,Q,[2],0.00322 (L/hour)
same,Vc,[2],1.43 L
same,Vp,[2],18.5 L
same,Kint,[2],0.148 (/hour)
same,KQSS = (Kint + Koff)/Kon,[2]; quasi-steady-state constant,6.96 (mg/L)
same,Ksyn,[2],1.43 (μg/mL/hour)
Sibrotuzumab: antibody; two-compartment model with mixed linear and nonlinear clearance,Ctrans,[3],0.579 µg/mL
same,KM,[4],0.219 µg/mL
same,Q,[4],0.902 L/day
same,VM,[4],0.811 mg/day
same,Vc,[4],4.13 L
same,Vp,[4],3.19 L
same,Cl,[4],0.530 L/day
Vedolizumab: antibody; two-compartment model with mixed linear and nonlinear clearance,Ctrans,[3],0.429 µg/mL
same,KM,[4],0.851 µg/mL
same,Q,[4],0.161 L/day
same,VM,[4],0.238 mg/day
same,Vc,[4],3.16 L
same,Vp,[4],1.84 L
same,Cl,[4],1.10 L/day
Alemtuzumab: antibody; PK described by two-compartment model with nonlinear only clearance,Ctrans,[5],338 (μg/L)
same,KM,[6]; M-M equation coefficient,338 (μg/L)
same,VM,[6]; M-M equation coefficient,1020 (μg/hour)
same,Vc,[6]; central compartment distribution volume,11.3 (L)
same,Q,[6]; exchange rate between compartments,1.05 (L/hour)
same,Vp,[6]; peripheral compartment distribution volume,41.5 (L)
Mavrilimumab: antibody; TMDD model under the QSS condition,Ctrans,[1],4.96 (nM) ^
same,VM = KsynVc,[1]; in vivo,6.72 (nmol/Day)
same,Km,"[1]; in vivo, read-out: KM = KQSS",0.0011 µM
same,KQSS = (Kint + Koff)/Kon,[1]; quasi-steady-state constant,1.1 (nM) ^
same,Ttot = Ksyn/Kdeg,[1],1.09 (nM) ^
same,Kdeg,[2],2.2 (/day)
same,Koff,[2]; drug-target binding reverse rate constant,10 (/day)
same,Cl,[2],0.3 (L/day) ^
same,Q,[2],1.7 (L/day) ^
same,Vc,[2],2.8 L
same,Vp,[2],5.6 L
same,Kint,[2],2.2 (/day)
same,Ksyn,[2],2.4 (nM/day)^
Tocilizumab: antibody; two-compartment model with mixed linear and nonlinear clearance,Ctrans,[3],8.22 µg/mL
same,Ctrans,[7],8.22 mg/L
same,KM,[4],2.7 µg/mL
same,Q,[4],0.2 L/day
same,VM,[4],7.5 mg/day
same,Vc,[4],3.5 L
same,Vp,[4],2.9 L
same,Cl,[4],0.3 L/day
Panitumumab: antibody; two-compartment model with mixed linear and nonlinear clearance,Ctrans,[3],3.98 µg/mL
same,KM,[4],0.401 µg/mL
same,Q,[4],0.389 L/day
same,VM,[4],10.6 mg/day
same,Vc,[4],3.66 L
same,Vp,[4],2.58 L
same,Cl,[4],0.269 L/day
O=C1NC(=O)C(c2ccccc2)(c2ccccc2)N1 [Phenytoin],Q = K12 × Vc,[8],79.98 mL/min
same,Vp = Q/K21,[8],1333 mL
same,Ctrans,[8]; calculated by Equation (3),5.9 µg/mL
same,K12,[9],0.197 min⁻¹
same,K21,[9],0.060 min⁻¹
same,KM,[9],5.9 µg/mL
same,VM,[9],272 µg/min
same,Vc,[9],406 mL
B1,Ctrans,[10]; Equation (2),115.18 nM
same,Ctrans,[10]; assuming molecular weight of 150 kDa,17.28 mg/L
same,Cl,[11],0.105 L/day
same,Km,[11],0.0273 µM
same,VM,[11],51.02 nmol/day
same,Vc,[11],5.18 L
